Among the data in publication PMC9136124 are stoichiometry N and Kd values, retold here.

Experiment [1] addresses FakA linker region, central domain (FakA_L) (Staphylococcus aureus). Description: AUC; sedimentation velocity of single constructs, c(s) model in SEDFIT, 20 mM Tris, pH 7.5, 200 mM NaCl, 5 mM DTT, 20 °C, 50,000 rpm, Rayleigh interference optics.
The target in experiment [2] is FakA, kinase component of fatty acid kinase (Staphylococcus aureus) (Staphylococcus aureus). Description: SEC-SAXS; Superdex 200 10/300, 20 mM Tris, pH 7.5, 200 mM NaCl, 1% glycerol; 300 μl FakA (4 mg/ml), FakA_NL (6.2 mg/ml) or FakA_LC (6 mg/ml) loaded. Background: In gel filtration, larger molecules generally elute earlier.
For experiment [3], the target named is FakA_LC (FakA_L and FakA_C domains connected) (Staphylococcus aureus). Described as above.
Experiment [4] shares this target. The experiment can be described thus: SEC; analytical size exclusion chromatography on a S-75 13/300 column, 20 mM Tris, pH 7.5, 200 mM NaCl; oligomerization state estimated from a standard curve of protein standards.
In experiment [5] the target is FakA_NL (FakA_N and FakA_L domains connected) (Staphylococcus aureus). The experiment can be described thus: SEC-SAXS; Superdex 200 10/300, 20 mM Tris, pH 7.5, 200 mM NaCl, 1% glycerol; 300 μl FakA (4 mg/ml), FakA_NL (6.2 mg/ml) or FakA_LC (6 mg/ml) loaded.
For experiment [6] the target is unchanged. Description: SEC; analytical size exclusion chromatography on a S-75 13/300 column, 20 mM Tris, pH 7.5, 200 mM NaCl; oligomerization state estimated from a standard curve of protein standards.
The target of experiment [7] is FakA_αβ bundle with helix (Staphylococcus aureus). The experiment can be described thus: AUC; sedimentation velocity of single constructs, c(s) model in SEDFIT, 20 mM Tris, pH 7.5, 200 mM NaCl, 5 mM DTT, 20 °C, 50,000 rpm, Rayleigh interference optics.
For experiment [8], the target named is FakA C terminus, FakB substrate-binding domain (FakA_C) (Staphylococcus aureus). Description: AUC; FakB1 mixed with each isolated FakA domain; c(s) model by the text, 'sedimentation equilibrium' by the legend of Figure 4; 20 mM Tris, pH 7.5, 200 mM NaCl, 5 mM DTT, 20 °C; apparent KD from equilibrium concentrations of duplicate experiments, single site equilibrium model.

pKd: −log10 of the molar value.

The substance “FakA linker region, central domain (FakA_L) (domain or fragment)” registered a stoichiometry N in experiment [1] of 2.

For the substance “FakA, kinase component of fatty acid kinase (Staphylococcus aureus) (enzyme)”, the stoichiometry N in experiment [2] worked out at 2.

As for “FakA_LC (FakA_L and FakA_C domains connected) (domain or fragment)”, the stoichiometry N in experiment [3] and in experiment [4] was 2 in each case.

Regarding “FakA_NL (FakA_N and FakA_L domains connected) (domain or fragment)”, the stoichiometry N in experiment [5] and in experiment [6] was 2 in each case.

As for “FakA_αβ bundle with helix (domain or fragment)”, the stoichiometry N in experiment [7] worked out at 2.

On to “FakB1, fatty acid binding protein component of fatty acid kinase (Staphylococcus aureus) (from UniProt X5EH37 1-288) (natural protein)”, for which, in experiment [8], the pKd was 4.80 and the stoichiometry N came to 1.

The stoichiometry N is the number of molecules, sites or subunits per partner or assembly. What is called pKd is the Kd on a negative log10 scale, so that one unit is a factor of ten.
